Laboratory results taken from PMC11748629, “Unidirectional MCM translocation away from ORC drives origin licensing” (Nature Communications, 2025).

B2: Orc4 (natural protein, Saccharomyces cerevisiae)
chain: MTISEARLSPQVNLLPIKRHSNEEVEETAAILKKRTIDNEKCKDSDPGFGSLQRRLLQQLYGTLPTDEKIIFTYLQDCQQEIDRIIKQSIIQKESHSVILVGPRQSYKTYLLDYELSLLQQSYKEQFITIRLNGFIHSEQTAINGIATQLEQQLQKIHGSEEKIDDTSLETISSGSLTEVFEKILLLLDSTTKTRNEDSGEVDRESITKITVVFIFDEIDTFAGPVRQTLLYNLFDMVEHSRVPVCIFGCTTKLNILEYLEKRVKSRFSQRVIYMPQIQNLDDMVDAVRNLLTVRSEISPWVSQWNETLEKELSDPRSNLNRHIRMNFETFRSLPTLKNSIIPLVATSKNFGSLCTAIKSCSFLDIYNKNQLSNNLTGRLQSLSDLELAILISAARVALRAKDGSFNFNLAYAEYEKMIKAINSRIPTVAPTTNVGTGQSTFSIDNTIKLWLKKDVKNVWENLVQLDFFTEKSAVGLRDNATAAFYASNYQFQGTMIPFDLRSYQMQIILQELRRIIPKSNMYYSWTQL
notes: Orc4, S. cerevisiae; Subunit of m1, written alone for the contacts seen in the structures; also called Orc4 subunit of ORC; source: S. cerevisiae strain ySD-ORC, purified as a subunit of ORC

Columns and labels:
Experiment in all cases: cryo-EM structure; OCCM^Mcm2RA: 30 nM MH-ARS1-MH DNA, 60 nM ORC, 90 nM Cdc6, 60 nM MCM-Cdt1 (Mcm2 R676A), 3 mM ATP; 25 mM HEPES pH 7.6, 100 mM potassium chloride, 10 mM magnesium acetate, 1 mM DTT; 30 °C, 30 min; 3.3 Å consensus, 3.2 Å local refinements
Conditions in all cases: both partners purified
[1] = target: T1, Origin Recognition Complex (ORC) (Saccharomyces cerevisiae, UniProt P54784 1-914; P32833 1-620; P54790 1-616; P54791 1-529; P50874 1-479; P38826 …)
T1 construct: Orc1, S. cerevisiae; Orc2, S. cerevisiae; Orc3, S. cerevisiae; Orc4, S. cerevisiae; Orc5, S. cerevisiae; Orc6, S. cerevisiae; also called ORC complex; copies: + + + + +

Orc1 = target: T2, Orc1 (Saccharomyces cerevisiae, UniProt P54784 1-914)
T2 construct: Orc1, S. cerevisiae; Subunit of m1, written alone for the contacts seen in the structures; also called Orc1 subunit of ORC; source: S. cerevisiae strain ySD-ORC, purified as a subunit of ORC
T2 sequence: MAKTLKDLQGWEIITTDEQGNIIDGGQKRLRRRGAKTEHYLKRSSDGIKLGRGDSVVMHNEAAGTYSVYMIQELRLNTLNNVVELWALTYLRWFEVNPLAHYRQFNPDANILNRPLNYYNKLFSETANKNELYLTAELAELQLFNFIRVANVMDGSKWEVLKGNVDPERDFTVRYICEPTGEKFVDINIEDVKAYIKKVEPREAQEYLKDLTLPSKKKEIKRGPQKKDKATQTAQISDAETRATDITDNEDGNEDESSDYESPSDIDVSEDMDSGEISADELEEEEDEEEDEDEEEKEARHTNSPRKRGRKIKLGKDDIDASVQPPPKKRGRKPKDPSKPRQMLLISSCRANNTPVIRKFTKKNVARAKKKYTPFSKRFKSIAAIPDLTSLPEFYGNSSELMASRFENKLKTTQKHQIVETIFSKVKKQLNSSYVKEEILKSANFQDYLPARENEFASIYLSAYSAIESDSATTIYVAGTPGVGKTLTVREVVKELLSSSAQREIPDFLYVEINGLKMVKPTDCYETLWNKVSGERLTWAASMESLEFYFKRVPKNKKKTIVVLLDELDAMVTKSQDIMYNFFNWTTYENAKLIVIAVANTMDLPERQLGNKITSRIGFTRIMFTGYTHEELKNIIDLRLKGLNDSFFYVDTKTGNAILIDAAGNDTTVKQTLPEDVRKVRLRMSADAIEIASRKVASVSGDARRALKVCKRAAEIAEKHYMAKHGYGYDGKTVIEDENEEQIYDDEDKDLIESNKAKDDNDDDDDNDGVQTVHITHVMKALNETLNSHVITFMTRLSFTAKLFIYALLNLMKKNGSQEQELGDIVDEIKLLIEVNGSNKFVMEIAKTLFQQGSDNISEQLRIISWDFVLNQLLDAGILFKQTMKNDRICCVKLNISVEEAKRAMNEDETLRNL

Orc3 = target: T3, Orc3 (Saccharomyces cerevisiae, UniProt P54790 1-616)
T3 construct: Orc3, S. cerevisiae; Subunit of m1, written alone for the contacts seen in the structures; also called Orc3 subunit of ORC; source: S. cerevisiae strain ySD-ORC, purified as a subunit of ORC
T3 sequence: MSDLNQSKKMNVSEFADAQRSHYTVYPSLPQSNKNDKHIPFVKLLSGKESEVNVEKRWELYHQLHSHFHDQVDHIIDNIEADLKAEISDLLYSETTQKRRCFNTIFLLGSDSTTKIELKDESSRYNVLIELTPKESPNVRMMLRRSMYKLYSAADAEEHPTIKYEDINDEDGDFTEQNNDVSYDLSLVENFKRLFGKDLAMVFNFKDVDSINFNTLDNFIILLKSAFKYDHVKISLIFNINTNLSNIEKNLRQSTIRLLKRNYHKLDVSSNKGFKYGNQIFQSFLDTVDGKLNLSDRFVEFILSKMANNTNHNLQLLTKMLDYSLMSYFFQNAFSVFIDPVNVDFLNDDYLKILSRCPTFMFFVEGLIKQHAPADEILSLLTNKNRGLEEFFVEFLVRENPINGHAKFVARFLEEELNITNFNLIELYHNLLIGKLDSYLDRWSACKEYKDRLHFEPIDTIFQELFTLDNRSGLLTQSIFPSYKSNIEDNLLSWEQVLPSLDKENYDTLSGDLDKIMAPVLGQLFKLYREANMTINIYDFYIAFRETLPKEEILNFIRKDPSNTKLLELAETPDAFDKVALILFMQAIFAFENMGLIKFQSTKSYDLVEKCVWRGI

Orc4 = target: B2
Mcm6 = target: T4, Mcm6 (Saccharomyces cerevisiae, UniProt P53091 1-1017)
T4 construct: Mcm6, S. cerevisiae; Subunit of m4 and m7, written alone for the contacts seen in the structures; also called Mcm6 subunit of MCM; source: S. cerevisiae strains yGC216 and yGC226, purified as a subunit of MCM-Cdt1
T4 sequence (P53091 whole entry): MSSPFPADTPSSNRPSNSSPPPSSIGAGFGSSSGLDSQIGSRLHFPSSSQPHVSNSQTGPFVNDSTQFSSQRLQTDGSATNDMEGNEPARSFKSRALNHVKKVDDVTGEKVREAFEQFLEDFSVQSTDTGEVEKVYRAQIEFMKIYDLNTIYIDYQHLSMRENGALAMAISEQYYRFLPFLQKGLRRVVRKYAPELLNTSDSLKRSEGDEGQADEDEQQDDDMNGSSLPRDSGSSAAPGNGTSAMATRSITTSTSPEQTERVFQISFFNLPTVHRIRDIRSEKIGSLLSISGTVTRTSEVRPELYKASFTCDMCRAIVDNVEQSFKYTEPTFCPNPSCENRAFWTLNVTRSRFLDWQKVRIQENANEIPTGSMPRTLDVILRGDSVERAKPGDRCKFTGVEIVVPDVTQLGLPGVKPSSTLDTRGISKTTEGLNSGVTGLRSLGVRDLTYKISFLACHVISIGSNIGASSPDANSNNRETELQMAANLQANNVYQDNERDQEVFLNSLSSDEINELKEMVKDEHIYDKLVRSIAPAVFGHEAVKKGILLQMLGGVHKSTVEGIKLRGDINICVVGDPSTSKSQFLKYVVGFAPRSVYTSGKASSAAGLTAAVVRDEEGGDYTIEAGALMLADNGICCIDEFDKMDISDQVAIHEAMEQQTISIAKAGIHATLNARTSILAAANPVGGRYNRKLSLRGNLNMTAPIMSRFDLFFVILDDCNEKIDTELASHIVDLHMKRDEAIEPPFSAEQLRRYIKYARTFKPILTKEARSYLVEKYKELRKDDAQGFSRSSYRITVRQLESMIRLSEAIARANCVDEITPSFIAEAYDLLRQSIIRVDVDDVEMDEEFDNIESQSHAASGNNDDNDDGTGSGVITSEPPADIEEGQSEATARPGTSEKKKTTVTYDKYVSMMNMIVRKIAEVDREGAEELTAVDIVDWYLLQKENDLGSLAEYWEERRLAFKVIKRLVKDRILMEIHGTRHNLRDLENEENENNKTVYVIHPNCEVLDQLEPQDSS

T1 sequence (P32833 whole entry, chain 2 of 2): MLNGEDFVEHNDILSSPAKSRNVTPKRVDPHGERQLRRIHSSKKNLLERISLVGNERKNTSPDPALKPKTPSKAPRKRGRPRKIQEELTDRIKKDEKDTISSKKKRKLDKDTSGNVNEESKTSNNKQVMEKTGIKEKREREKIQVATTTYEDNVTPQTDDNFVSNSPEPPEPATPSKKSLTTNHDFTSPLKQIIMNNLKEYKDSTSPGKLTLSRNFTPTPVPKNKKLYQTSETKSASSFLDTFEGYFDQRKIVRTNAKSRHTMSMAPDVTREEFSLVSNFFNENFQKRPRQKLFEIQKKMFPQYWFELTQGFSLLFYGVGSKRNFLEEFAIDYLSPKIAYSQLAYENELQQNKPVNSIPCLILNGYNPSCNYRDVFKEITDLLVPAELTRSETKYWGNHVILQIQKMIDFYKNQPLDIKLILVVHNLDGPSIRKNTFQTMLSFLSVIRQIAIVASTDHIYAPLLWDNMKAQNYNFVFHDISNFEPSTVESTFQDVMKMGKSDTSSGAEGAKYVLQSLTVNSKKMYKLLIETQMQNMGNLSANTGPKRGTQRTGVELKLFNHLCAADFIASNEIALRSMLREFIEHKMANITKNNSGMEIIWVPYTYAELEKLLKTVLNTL
T1 sequence (P38826 whole entry, chain 6 of 2): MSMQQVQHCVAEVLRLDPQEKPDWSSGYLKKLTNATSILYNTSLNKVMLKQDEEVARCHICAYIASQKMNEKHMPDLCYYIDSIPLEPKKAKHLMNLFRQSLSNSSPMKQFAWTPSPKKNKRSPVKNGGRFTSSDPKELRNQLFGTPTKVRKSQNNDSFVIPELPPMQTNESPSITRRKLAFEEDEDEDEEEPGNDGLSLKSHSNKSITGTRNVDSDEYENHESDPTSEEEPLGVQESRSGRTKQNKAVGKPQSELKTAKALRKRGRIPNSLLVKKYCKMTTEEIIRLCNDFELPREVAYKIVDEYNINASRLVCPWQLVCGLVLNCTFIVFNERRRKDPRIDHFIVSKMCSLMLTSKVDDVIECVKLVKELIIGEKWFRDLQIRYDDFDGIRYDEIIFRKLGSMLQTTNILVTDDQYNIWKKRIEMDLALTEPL

B1: Saccharomyces cerevisiae Cdc6 (natural protein, UniProt P09119 1-513, looked up)
chain: MSAIPITPTKRIRRNLFDDAPATPPRPLKRKKLQFTDVTPESSPEKLQFGSQSIFLRTKALLQKSSELVNLNSSDGALPARTAEYEQVMNFLAKAISEHRSDSLYITGPPGTGKTAQLDMIIRQKFQSLPLSLSTPRSKDVLRHTNPNLQNLSWFELPDGRLESVAVTSINCISLGEPSSIFQKIFDSFQDLNGPTLQIKNMQHLQKFLEPYHKKTTFVVVLDEMDRLLHANTSETQSVRTILELFLLAKLPTVSFVLIGMANSLDMKDRFLSRLNLDRGLLPQTIVFQPYTAEQMYEIVIQKMSSLPTIIFQPMAIKFAAKKCAGNTGDLRKLFDVLRGSIEIYELEKRFLLSPTRGSLNSAQVPLTPTTSPVKKSYPEPQGKIGLNYIAKVFSKFVNNNSTRTRIAKLNIQQKLILCTIIQSLKLNSDATIDESFDHYIKAITKTDTLAPLQRNEFLEICTILETCGLVSIKKTKCKGKTKRFVDKIDVDLDMREFYDEMTKISILKPFLH
notes: Cdc6, S. cerevisiae; source: E. coli BL21(CodonPlus)-RIL, plasmid pAM3, purified (glutathione sepharose, preScission protease, hydroxyapatite)
B1: binds [1]; binds (Orc1).

B2: binds (Orc1).

B3: Orc5 (natural protein, Saccharomyces cerevisiae)
chain: MNVTTPEVAFREYQTNCLASYISADPDITPSNLILQGYSGTGKTYTLKKYFNANPNLHAVWLEPVELVSWKPLLQAIARTVQYKLKTLYPNIPTTDYDPLQVEEPFLLVKTLHNIFVQYESLQEKTCLFLILDGFDSLQDLDAALFNKYIKLNELLPKDSKINIKFIYTMLETSFLQRYSTHCIPTVMFPRYNVDEVSTILVMSRCGELMEDSCLRKRIIEEQITDCTDDQFQNVAANFIHLIVQAFHSYTGNDIFALNDLIDFKWPKYVSRITKENIFEPLALYKSAIKLFLSTDDNLSENGQGESAITTNRDDLENSQTYDLSIISKYLLIASYICSYLEPRYDASIFSRKTRIIQGRAAYGRRKKKEVNPRYLQPSLFAIERLLAIFQAIFPIQGKAESGSLSALREESLMKANIEVFQNLSELHTLKLIATTMNKNIDYLSPKVRWKVNVPWEIIKEISESVHFNISDYFSDIHE
notes: Orc5, S. cerevisiae; Subunit of m1, written alone for the contacts seen in the structures; also called Orc5 subunit of ORC; source: S. cerevisiae strain ySD-ORC, purified as a subunit of ORC
B3: binds (Orc3); binds (Orc4).

B4: Mcm2 R676A (natural protein, Saccharomyces cerevisiae)
chain: MSDNRRRRREEDDSDSENELPPSSPQQHFRGGMNPVSSPIGSPDMINPEGDDNEVDDVPDIDEVEEQMNEVDLMDDNMYEDYAADHNRDRYDPDQVDDREQQELSLSERRRIDAQLNERDRLLRNVAYIDDEDEEQEGAAQLDEMGLPVQRRRRRRQYEDLENSDDDLLSDMDIDPLREELTLESLSNVKANSYSEWITQPNVSRTIARELKSFLLEYTDETGRSVYGARIRTLGEMNSESLEVNYRHLAESKAILALFLAKCPEEMLKIFDLVAMEATELHYPDYARIHSEIHVRISDFPTIYSLRELRESNLSSLVRVTGVVTRRTGVFPQLKYVKFNCLKCGSILGPFFQDSNEEIRISFCTNCKSKGPFRVNGEKTVYRNYQRVTLQEAPGTVPPGRLPRHREVILLADLVDVSKPGEEVEVTGIYKNNYDGNLNAKNGFPVFATIIEANSIKRREGNTANEGEEGLDVFSWTEEEEREFRKISRDRGIIDKIISSMAPSIYGHRDIKTAVACSLFGGVPKNVNGKHSIRGDINVLLLGDPGTAKSQILKYVEKTAHRAVFATGQGASAVGLTASVRKDPITKEWTLEGGALVLADKGVCLIDEFDKMNDQDRTSIHEAMEQQSISISKAGIVTTLQARCSIIAAANPNGGRYNSTLPLAQNVSLTEPILSAFDILCVVRDLVDEEADERLATFVVDSHVRSHPENDEDREGEELKNNGESAIEQGEDEINEQLNARQRRLQRQRKKEEEISPIPQELLMKYIHYARTKIYPKLHQMDMDKVSRVYADLRRESISTGSFPITVRHLESILRIAESFAKMRLSEFVSSYDLDRAIKVVVDSFVDAQKVSVRRQLRRSFAIYTLGH
notes: Mcm2, S. cerevisiae; Subunit of m4, written alone for the contacts seen in OCCM^Mcm2RA; also called Mcm2RA; source: S. cerevisiae strain yGC216, purified as a subunit of MCM-Cdt1
B4: binds (Mcm6).
